Reference: publication PMC7948952, “Structural basis for multifunctional roles of human Ints3 C-terminal domain” (The Journal of Biological Chemistry, 2020)
Changes are numbered by the printed parent chain. In names and notes the source's numbering stands. Values belong to the binder of their own block, whether it stands above or below them.

Legend:
[1] = biological target: the molecule itself; assay: cross-linking; glutaraldehyde, final concentration 0.075%, SDS-PAGE; negative control with 1% SDS and 20 mM DTT added before the reaction
[2] = biological target: the molecule itself; assay: SEC; Superdex 200 Increase 10/300 Gl, 100 μl of approximately 2 mg/ml, 0.5 ml/min; wild-type and mutant Ints3-555-976
[3] = biological target: Ints3 C-terminal domain (Ints3-555-976) WT (human, UniProt Q68E01-2 555-976); assay: EMSA; roughly 100% bound at 25 uM protein; 20 mM Hepes pH 7.4, 100 mM NaCl, 1 mM MgCl2, 1 mg/ml BSA, 2 mM DTT, 5% glycerol; on ice 30 min; 7.5 nM probe; native 5% PAGE in 1X TBE; settings: protein: recombinant; tags: His or GST (GST cleaved); chain copies: 2; label: 5' 32P; single strand
[4] = biological target: T1, GST-tagged Ints3-555-976 R863A/D869A (human, UniProt Q68E01-2 555-976, R863A | D869A); assay: pull-down; coexpression in E. coli of GST-tagged Ints3 constructs (pGEX-6p-1) and MBP-Ints6-807-887 (pRSFDuet-1), GST or MBP pull-down ('coexpression and reverse pull-down'); settings: partners not purified
T1 construct: numbers count on: UniProtKB Q68E01-2, 1042 amino acids; source: E. coli BL21, coexpressed with MBP-Ints6-807-887; also captured on glutathione Sepharose from lysate; not shown: GST, N-terminal, kept

[5] = biological target: T2, GST-tagged Ints3-555-976, wild type (human, UniProt Q68E01-2 555-976); assay: pull-down; in vitro GST pull-down: GST-Ints3 captured on glutathione Sepharose 4B from BL21 lysates, incubated with about 15 μg purified MBP-Ints6-807-887; 20 mM Tris-HCl pH 8.0, 300 mM NaCl, 0.1% Nonidet P-40, 5% glycerol, 2 mM DTT, 2 h at 4 °C; anti-MBP blot; settings: both partners purified
T2 construct: numbers count on: UniProtKB Q68E01-2, 1042 amino acids; also called GST-Ints3; GST-tagged Ints3 C-terminal domain; source: E. coli BL21, captured on glutathione Sepharose from lysate; also coexpressed with MBP-Ints6-807-887; not shown: GST, N-terminal, kept

GST-tagged Ints3-555-899 = biological target: T3, GST-tagged Ints3-555-899 (human, UniProt Q68E01-2 555-899); assay: as above; settings: both partners purified
T3 construct: numbers count on: UniProtKB Q68E01-2, 1042 amino acids; source: E. coli BL21, captured on glutathione Sepharose from lysate

B1: Ints3-555-976 (human Ints3 C-terminal domain), wild type (domain or fragment, UniProt Q68E01-2 555-976, looked up)
chain: PIKETVVEEPVDITPYLDQLDESLRDKVLQLQKGSDTEAQCEVMQEIVDQVLEEDFDSEQLSVLASCLQELFKAHFRGEVLPEEITEESLEESVGKPLYLIFRNLCQMQEDNSSFSLLLDLLSELYQKQPKIGYHLLYYLRASKAAAGKMNLYESFAQATQLGDLHTCLMMDMKACQEDDVRLLCHLTPSIYTEFPDETLRSGELLNMIVAVIDSAQLQELVCHVMMGNLVMFRKDSVLNILIQSLDWETFEQYCAWQLFLAHNIPLETIIPILQHLKYKEHPEALSCLLLQLRREKPSEEMVKMVLSRPCHPDDQFTTSILRHWCMKHDELLAEHIKSLLIKNNSLPRKRQSLRSSSSKLAQLTLEQILEHLDNLRLNLTNTKQNFFSQTPILQALQHVQASCDEAHKMKFSDLFSLAEEY
notes: numbers count on: UniProtKB Q68E01-2, 1042 amino acids; For crystallisation a trace of trypsin (1:1000 w/w) was added; it cuts after K557 and after K914, and both fragments stay in the crystal; SeMet protein was used for phasing; also called HR1-11; Band I; not shown: GST, N-terminal, cleaved
- stoichiometry N [1]: 2

B2: Ints3-555-976 R788E/K789E (domain or fragment, human, UniProt Q68E01-2 555-976, looked up)
chain: B1 chain with R234E, K235E
notes: numbers count on: UniProtKB Q68E01-2, 1042 amino acids; source: purified to homogeneity (gel filtration)
- stoichiometry N [2]: 2

B3: Ints3-555-976 K851E (domain or fragment, human, UniProt Q68E01-2 555-976, looked up)
chain: B1 chain with K297E
notes: numbers count on: UniProtKB Q68E01-2, 1042 amino acids; also called K851 E charge mutant; source: purified to homogeneity (gel filtration)
- stoichiometry N [2]: 2

Binder: UUUUUUUUUUUUUUUUUUUUUUUUUUUUUU (ssRNA) [rU30]
- binding result [3]: binds

- binding result [4]: binds
- binding result [5]: binds
- binding result (GST-tagged Ints3-555-899): binds
B4: MBP-Ints6-807-887 (domain or fragment, UniProt Q9UL03 807-887, looked up)
chain: EVNTELKAQIMKEIRKPGRKYERIFTLLKHVQGSLQTRLIFLQNVIKEASRFKKRMLIEQLENFLDEIHRRANQINHINSN
notes: Integrator complex subunit 6 (Ints6, DDX26a), residues 807-887; cDNA from DNAsu; Made in a modified pMal-c2X vector: an AAAEF linker and no protease site stand between MBP and Ints6-807-887; the MBP-Ints6-807-887 region was then cloned into pRSFDuet-1; also called MBP-tagged Ints6-807-887; source: E. coli BL21-CodonPlus (DE3)-RIPL, purified (amylose resin, HiTrap Q); also coexpressed with …
